The target in the assay is T1, FOLR1 on NIH:OVCAR-3 cells (human, UniProt P15328 25-233).
T1 construct: Endogenous FOLR1 of NIH:OVCAR-3 (FOLR1+) cells; also called cell surface FOLR1
The assay is described as follows: flow cytometry on NIH:OVCAR-3 cells, Alexa Fluor 488 anti-human IgG. The procedure:
Binding affinity of selected anti-FOLR1 pH engineered antibody variants from Examples 9 and 11 were measured on NIH:OVCAR-3 cells. 100,000 cells per well were resuspended in […] FC buffer in a 96 well deep well plate. Mirvetuximab and pH engineered antibody variants were serially diluted at a 1:3 dilution. 100 µL of diluted antibody was added to each well with final concentration ranging from ˜100 nM to 0.024 pM and incubated for 2 hours at 4° C. Post incubation, the cells were spun at 2000 rpm for 2 min and supernatant was discarded. Cells were washed twice with 500 μL of ice-cold FC buffer and resuspended with 100 μL of FC buffer. The cells were then transferred from the deep well plate to 96 well round bottom plate, spun at 2000 rpm for 2 min and incubated with 100 μL of 10 μg/mL Alexa Fluor 488 conjugated goat anti-human IgG secondary antibody (ThermoFisher Scientific, A11013) for 30 min. Post incubation, cells were washed with FC buffer and resuspended in 100 μL, of FC buffer to read on a BD Accuri C6 flow cytometer. […] MYT0603 and MYT1154 show high affinity binding to cell surface FOLR1 on NIH:OVCAR-3 cells in the pM-nM range confirming that variants created through pH engineering can retain functionally appropriate affinities as compared to their corresponding starting ABPCs (e.g., mirvetuximab).

One may read the IC50 as the concentration that gives 50% inhibition. Higher therefore signals weaker potency.

Substitutions are numbered along the chain they refer to.

T1 sequence (P15328 25-233): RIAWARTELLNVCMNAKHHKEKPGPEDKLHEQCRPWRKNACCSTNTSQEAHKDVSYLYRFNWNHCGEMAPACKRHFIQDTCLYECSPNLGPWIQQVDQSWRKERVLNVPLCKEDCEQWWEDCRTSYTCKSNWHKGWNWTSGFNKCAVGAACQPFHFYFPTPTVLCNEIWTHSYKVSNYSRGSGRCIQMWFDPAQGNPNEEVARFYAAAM

B1: mirvetuximab (antibody, V domains shown)
VH: QVQLVQSGAEVVKPGASVKISCKASGYTFTGYFMNWVKQSPGQSLEWIGRIHPYDGDTFYNQKFQGKATLTVDKSSNTAHMELLSLTSEDFAVYYCTRYDGSRAMDYWGQGTTVTVSS
VL: DIVLTQSPLSLAVSLGQPAIISCKASQSVSFAGTSLMHWYHQKPGQQPRLLIYRASNLEAGVPDRFSGSGSKTDFTLTISPVEAEDAATYYCQQSREYPYTFGGGTKLEIK
notes: IgG expressed in Expi293; the entries are labelled heavy/light chain of the IgG but hold only the variable domains; also called MYT0596
With B1, inhibition was half-maximal at 0.25 nM (IC50).

B2: MYT0603 (antibody, V domains shown)
VH: B1 VH with F29H
VL: B1 VL
notes: IgG
The molecule B2 displayed an IC50 of 0.65 nM.

B3: MYT1154 (antibody, V domains shown)
VH: B1 VH with A24H, Y27H, F59H
VL: B1 VL
notes: IgG
B3 displayed an IC50 of 0.396 nM.

For the origin of these results see patent US20220298260A1 (MYTHIC THERAPEUTICS, published 2022).
